B1: HT31-GL (antibody, V domains shown)
VH: EVQLLESGGGLVQPGGSLRLSCAASGFTFSIYAMSWVRQAPGKGLEWVSAISGGGDSTYYADSVKGRFTISRDNSKNTLYLQMNSLRAEDTAVYYCAKDRGFYYGMDVWGQGTTVTVSS
VL: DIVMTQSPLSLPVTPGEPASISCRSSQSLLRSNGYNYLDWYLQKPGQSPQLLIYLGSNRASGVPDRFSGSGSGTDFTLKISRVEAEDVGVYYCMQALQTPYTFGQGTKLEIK
notes: member of m17
B2: HT10-GL (antibody, V domains shown)
VH: EVQLLESGGGLVQPGGSLRLSCAASGFTFSHYAMTWVRQAPGKGLEWISAISGGGDSTYYADSVKGRFTISRDNSKNTLYLQMNSLRAEDTAVYYCAKDRGYYYGMDDWGQGTTVTVSS
VL: not shown
notes: member of m17
B3: HT14-GL (antibody, V domains shown)
VH: EVQLLESGGGLVQPGGSLRLSCAASGFTFNIYAMTWVRQAPGKGLEWVSGISGGGDSTYYADSVKGRFTMSRDNSKNTLYLQMNSLRAEDTAVYYCAKDRGYYYGMDVWGQGTTVTVSS
VL: DIVMTQSPLSLPVTPGEPASISCKSRQSLLRSNGYNYLDWYLQKPGQSPQLLIYLGSNRASGVPDRFSGSGSGTDFTLKISRVEAEDVGVYYCMQALQTPYTFGQGTKLEIK
notes: member of m17
B4: HT6-GL (antibody, V domains shown)
VH: EVQLLESGGGLVQPGGSLRLSCAASGFTFNSYAMSWVRQAPGKGLEWVSAVSGGGDTTYYAESVKGRFTISRDNSKNTLYLQMNSLRAEDTAVYYCAKDRGYYYGMAVWGQGTTVTVSS
VL: DIVMTQSPLSLPVTPGEPASISCRSSQSLLRSNGYHYLDWYLQKPGQSPQLLIYLGSNRAPGVPDRFSGSGSGTDFTLKISRVEAEDVGVYYCMQALQTPYTFGQGTKLEIK
notes: member of m17
B5: HT35-GL (antibody, V domains shown)
VH: EVQLLESGGGLVQPGGSLRLSCAASGFTFSHYAMTWVRQAPGKGLEWISAISGGGDSTYYADSVKGRFTISRDNSKNTLYLQMNSLRAEDTAVYYCAKDRGYYYGMDVWGQGTTVTVSS
VL: not shown
notes: member of m17
B6: HT32-GL (antibody, V domains shown)
VH: EVQLLESGGGLVQPGGSLRLSCAASGFTFSSYAMSWVRQAPGKGLEWVSAISGGGDTTYYADSVKGRFTISRDNSKNTLYLQMNSLRAEDTAVYYCAKDRGFYYGMDVWGQGTTVTVSS
VL: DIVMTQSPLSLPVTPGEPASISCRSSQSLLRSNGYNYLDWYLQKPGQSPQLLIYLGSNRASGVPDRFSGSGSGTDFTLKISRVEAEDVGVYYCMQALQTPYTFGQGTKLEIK
notes: member of m17
B7: HT16-GL (antibody, V domains shown)
VH: EVQLLESGGGLVQPGGSLRLSCAASGFTFSNYAMTWVRQAPGKGLEWVSAISGGGDTTYYADSVKGRFTISRDNSKNTLYLQMNSLRAEDTAVYYCAKDRGYYYGMDVWGQGTTVTVSS
VL: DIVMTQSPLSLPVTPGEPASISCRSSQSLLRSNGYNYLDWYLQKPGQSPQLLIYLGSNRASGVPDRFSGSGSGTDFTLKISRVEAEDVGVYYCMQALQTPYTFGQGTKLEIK
notes: member of m17
B8: HT30-GL (antibody, V domains shown)
VH: EVQLLESGGGLVQPGGSLRLSCAASGFTFSIYAMSWVRQAPGKGLEWVSAITAGGDTTYYAVSVKGRFTISRDNSKNTLYLQMNSLRAEDTAVYYCAKDRGYYYGMDVWGQGTTVTVSS
VL: not shown
notes: member of m17
B9: HT34-GL-L (antibody, V domains shown)
VH: EVQLLESGGGLVQPGGSLRLSCAASGFTFSHYAMTWVRQAPGKGLEWVSAISGGGDTTYYADSVKGRFTISRDNSKTTLYLQMNSLRAEDTAVYYCAKDRGYYYGMDVWGQGTTVTVSS
VL: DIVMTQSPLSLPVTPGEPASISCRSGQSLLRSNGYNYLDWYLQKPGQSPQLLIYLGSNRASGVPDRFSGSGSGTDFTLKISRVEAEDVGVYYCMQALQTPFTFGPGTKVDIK
notes: member of m17
B10: HT8-GL (antibody, V domains shown)
VH: EVQLLESGGGLVQPGGSLRLSCAASGFTFSIYAMSWVRQAPGKGLEWVSAISGGGDTTYYADSMKGRFTISRDNSKNTLYLQMNSLRAEDTAVYYCAKDRGYYYGMDVWGQGTTVTVSS
VL: not shown
notes: member of m17
B11: HT29-GL (antibody, V domains shown)
VH: EVQLLESGGGLVQPGGSLRLSCAASGFAFSHYAMSWVRQAPGKGLEWVSAISGGGDSTYYADSVKGRFTISRDNSKNTLYLQMNSLRAEDTAVYYCAKDRGYYYGMDVWGQGTTVTVSS
VL: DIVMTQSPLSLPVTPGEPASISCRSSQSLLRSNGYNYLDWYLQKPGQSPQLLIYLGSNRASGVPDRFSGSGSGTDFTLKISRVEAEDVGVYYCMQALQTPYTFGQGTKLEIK
notes: member of m17
B12: HT7-GL (antibody, V domains shown)
VH: EVQLLESGGGLVQPGGSLRLSCAASGFTFSHYAMSWVRQAPGKGLEWVSAISGGGDRTFYADSVKGRFTISRDNSKNTLYLQMNSLRAEDTAVYYCAKDRGFYYGMDVWGQGTTVTVSS
VL: not shown
notes: member of m17
B13: HT4-GL (antibody, V domains shown)
VH: EVQLLESGGGLVQPGGSLRLSCAASGFTFSIYAMSWVRQAPGKGLEWVSAISGGGDSTYNADSVKGRFTISRDNSKNTLYLQMNSLRAEDTAVYYCAKDRGYYYGMVVWGQGTTVTVSS
VL: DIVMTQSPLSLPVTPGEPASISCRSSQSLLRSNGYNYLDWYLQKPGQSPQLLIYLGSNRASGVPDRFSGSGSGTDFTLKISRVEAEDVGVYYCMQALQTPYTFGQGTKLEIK
notes: member of m17
B14: HT33-GL (antibody, V domains shown)
VH: EVQLLESGGGLVQPGGSLRLSCAASGFTFGHYAMSWVRQAPGKGLEWVSAISGGGDYTYYADSVKGRLTISRDNSKNTLYLQMNSLRAEDTAVYYCAKDRGYYYGMDVWGQGTTVTVSS
VL: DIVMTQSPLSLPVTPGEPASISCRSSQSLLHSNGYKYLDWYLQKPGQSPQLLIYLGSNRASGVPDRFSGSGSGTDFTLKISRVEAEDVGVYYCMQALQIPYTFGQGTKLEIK
notes: member of m17
B15: HT36-GL (antibody, V domains shown)
VH: EVQLLESGGGLVQPGGSLRLSCAASGFTFSIYAMSWVRQAPGKGLEWVSAISGGGDTTYYADSVKGRFTSSRDNSKNTLYLQMNSLRAEDTAVYFCAKDRGFYYGMDVWGQGTTVTVSS
VL: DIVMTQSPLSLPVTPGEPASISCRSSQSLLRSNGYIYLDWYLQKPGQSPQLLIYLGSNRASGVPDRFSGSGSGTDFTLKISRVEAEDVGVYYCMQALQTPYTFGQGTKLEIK
notes: member of m17
B16: HT38-GL-Q (antibody, V domains shown)
VH: EVQLLESGGGLVQPGGSLRLSCAASGFTFSSYAMSWVRQAPGKGLEWVSAISGGGDSTYYTDSVKGRFTISRDNSKNTLYLQMNSLRAEDTAVYYCAKDRGFYYGMDVWGQGTTVTVSS
VL: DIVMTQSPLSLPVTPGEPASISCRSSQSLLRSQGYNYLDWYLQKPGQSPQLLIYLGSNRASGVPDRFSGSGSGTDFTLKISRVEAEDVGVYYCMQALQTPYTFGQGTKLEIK
notes: member of m17
B17: HT38-GL (antibody, V domains shown)
VH: EVQLLESGGGLVQPGGSLRLSCAASGFTFSSYAMSWVRQAPGKGLEWVSAISGGGDSTYYTDSVKGRFTISRDNSKNTLYLQMNSLRAEDTAVYYCAKDRGFYYGMDVWGQGTTVTVSS
VL: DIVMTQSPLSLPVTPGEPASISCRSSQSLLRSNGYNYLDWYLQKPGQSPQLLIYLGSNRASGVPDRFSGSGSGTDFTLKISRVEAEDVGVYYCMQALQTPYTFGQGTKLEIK
notes: member of m17
B18: HT37-GL-L (antibody, V domains shown)
VH: EVQLLESGGGLVQPGGSLRLSCAASGFTFSIYAMTWVRQAPGKGLEWVSAISAGGDNTYNADSVKGRFTISRDNSKITLYLQMNSLRAEDTAVYYCAKDRGYYYGMDVWGQGTTVTVSS
VL: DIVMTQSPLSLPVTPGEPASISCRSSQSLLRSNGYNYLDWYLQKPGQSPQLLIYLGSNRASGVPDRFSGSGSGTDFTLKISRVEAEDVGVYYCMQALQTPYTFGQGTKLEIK
notes: member of m17
B19: HT37-GL (antibody, V domains shown)
VH: EVQLLESGGGLVQPGGSLRLSCAASGFTFSIYAMTWVRQAPGKGLEWVSAISAGGDNTYNADSVKGRFTISRDNSKNTLYLQMNSLRAEDTAVYYCAKDRGYYYGMDVWGQGTTVTVSS
VL: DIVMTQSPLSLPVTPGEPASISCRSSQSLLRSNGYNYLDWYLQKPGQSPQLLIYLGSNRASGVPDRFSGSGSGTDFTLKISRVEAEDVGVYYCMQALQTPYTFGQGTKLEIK
notes: member of m17
B20: HT12-GL-SG3932 (antibody, human IgG1, kappa, V domains shown)
VH: EVQLLESGGGLVQPGGSLRLSCAASGFTFNIYAMTWVRQAPGKGLEWVSGISAGGDSTYYADSVKGRFTISRDNSKNTLYLQMNSLRAEDTAVYYCAKDRGYYYGMDVWGQGTTVTVSS
VL: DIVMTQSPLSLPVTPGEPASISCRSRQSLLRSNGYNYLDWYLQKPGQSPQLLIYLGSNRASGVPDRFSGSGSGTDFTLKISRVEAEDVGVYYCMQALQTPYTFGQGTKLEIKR
modifications: SG3932 drug-linker on Cysteine 214 (EU numbering); SG3932 drug-linker (maleimide, succinimidyl thioether) on reduced cysteines; Cysteine 220, Cysteine 226 and Cysteine 229 (EU numbering) named as conjugation sites; DAR 8
notes: also called HT12-GL ADC; CD123 ADC
B21: J13 antibody (antibody, V domains shown)
VH: EVQLVESGGGLVQPGGSLRLSCVVSGFTFSSYAMSWVRQAPGKGLEWVSAISGSGDSTYYADSVKGRFTFSRDNSKNTLYLQMNSLRAEDTAVYYCTKDRGFYYGMDVWGQGTMVTVSS
VL: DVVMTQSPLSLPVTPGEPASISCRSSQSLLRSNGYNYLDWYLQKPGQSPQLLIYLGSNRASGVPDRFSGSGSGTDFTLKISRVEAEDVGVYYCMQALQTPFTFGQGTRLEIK
notes: also called Antibody J13

In the first test the target is T1, human CD123 (IL3Rα) on cells (human, UniProt P26951 19-378).
T1 construct: whole, on cells; also called human IL3Rα expressed on 293 cells; AD293hIL3Rα
Kind of test: flow cytometry on Ad293 cells expressing human IL3Ra, geometric mean.
For B1, the binding result is “binds”.

In the case of B2, the binding result was “binds”.

As to B3, the binding result was “binds”.

On to B4, for which the binding result is on record as “binds”.

Consider B5, for which the binding result is given as “binds”.

As for B6, the binding result was “binds”.

B7: the binding result is on record as “binds”.

Regarding B8, the binding result was “binds”.

For B9, the binding result was “binds”.

On to B10, for which the binding result is on record as “binds”.

For the molecule B11, the binding result is recorded as “binds”.

For B12, the binding result is reported as “binds”.

For the molecule B13, the binding result was “binds”.

In the case of B14, the binding result is “binds”.

In the case of B15, the binding result is “binds”.

The target in another test is T1, human CD123 (IL3Rα) on cells. Kind of test: flow cytometry on OCI-AML5 cells, geometric mean.
B16: the binding result was “binds”.

With B17, the binding result is on record as “binds”.

With B18, the binding result was “binds”.

The next test shares this target. Kind of test: flow cytometry on Mv411 cells, geometric mean.
For the molecule B19, the binding result is recorded as “binds”.

Another test shares this target. Kind of test: flow cytometry on THP-1 CD123 (no dox) cells, Geo MFI. The procedure:
(§1) THP-1 cells were transfected with an IL3Rα expression construct under the control of a doxycycline inducible promoter. THP-1 cells were maintained in DMEM containing 10% heat-inactivated fetal bovine serum (FBS) and were cultured in a humidified atmosphere of 5% CO₂ and at a temperature of 37° C. […] (Dox) inducible cells were stimulated with 1 μg/ml dox overnight before use. […] On the day of plating, cells were spun down at 1500 rpm for 3 minutes, counted, and resuspended to a final concentration of 1×10⁶ cells/ml. Two hundred μl of cells were plated in wells of 96 well microtiter plates. The plates were spun down at 1500 rpm for 3 minutes and flicked to remove media. One hundred μl of FACS buffer (PBS+2% FBS) was added to each well. […] The antibody concentration started at 12 μg/ml followed by six 1:3 dilutions (no antibody control was also run). The plates were incubated at 4° C. for 30 minutes. Following incubation, the plates were washed 3 times by spinning down at 1500 rpm for 3 minutes, flicked and 100 μl of FACs buffer was added. Alexa 647 secondary antibody (goat anti-human IgG (H+L)) was added at 1:1000 dilution in 100 μl followed by 30 minute 4° C. incubation. The plates were washed as above. […] Cells were analyzed on a BD Bioscience LSRII by collecting 10,000 cells. Flow data was analyzed in FlowJo software.
(Flow cytometry measures light scatter and fluorescence of single cells or particles in a stream.)
What is called EC50 (read off the curve) is the concentration that produces a half-maximal response. Low values mean higher potency in that assay, high ones lower potency in that assay. For B20, the “EC50 (read off the curve)” value was approximately 0.1 µg/mL.

The next test shares this target. As to the kind of experiment: flow cytometry on THP-1 CD123(+dox) cells, Geo MFI. The protocol:
as §1
Turning to B20, the “EC50 (read off the curve)” value was approximately 0.3 µg/mL.

Another test concerns the target T2, human IL3Rα (CD123), sample in solution for biolayer interferometry (human, UniProt P26951 19-305, limits assumed).
T2 construct: Soluble analyte in the Octet assay; also called hIL3-Rα; hIL3Rα
T2 sequence (looked up): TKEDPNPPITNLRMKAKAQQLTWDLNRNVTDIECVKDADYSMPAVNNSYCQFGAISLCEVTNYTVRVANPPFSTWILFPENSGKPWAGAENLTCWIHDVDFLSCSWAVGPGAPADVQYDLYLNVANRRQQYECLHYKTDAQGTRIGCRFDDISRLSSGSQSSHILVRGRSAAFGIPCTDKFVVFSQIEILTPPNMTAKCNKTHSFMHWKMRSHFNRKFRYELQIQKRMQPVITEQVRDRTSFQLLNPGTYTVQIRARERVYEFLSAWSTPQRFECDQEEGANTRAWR
Kind of test: kinetic binding curves, antibody on the sensor, human CD123 in solution. The protocol: Biolayer interferometry binding experiments were performed using an Octet RED384 instrument, with all measurements made at 30° C. AHC biosensor probes were soaked in kinetics buffer (PBS pH 7.2+0.02% Tween-20, 0.1% BSA, 0.05% sodium azide) for 10 minutes, followed by baseline signal measurement in kinetics buffer for 60 seconds. […] For binding to hIL3-Rα, the antibody-loaded biosensor tips were dipped in binding buffer for 60 sec (baseline), followed by immersion in a solution containing dilutions of hIL3-Rα (10-0.16 μg/mL) for 300 sec (association), and subsequent immersion in kinetics buffer for 400 sec (dissociation). For binding to hIL5-Rα and GM-CSFRa, all steps were the same except the concentration of antigen was increased (50-1.56 μg/mL) and the dissociation step was decreased to 300 sec. The signal from a buffer only reference sample was subtracted, and all curves were fit with a 1:1 binding model to determine KD values.
As for B21, the binding result is recorded as “binds”.

These data come from patent publication US20250051463A1 (AstraZeneca / MedImmune, published 2025).
